Read-outs that look alike come from different tables or passages of the source.
B1: TB-C1 (bispecific antibody, human IgG1, kappa)
light: DIVMTQSPATLSVTPGDRVSLSCRASQSISDYLHWYQQKSHESPRLLIKYASQSISGIPSRFSGSGSGSDFTLSINSVEPEDVGVYYCQNGHSFPLTFGAGTKLELKRTVAAPSVFIFPPSDEQLKSGTASVVCLLNNFYPREAKVQWKVDNALQSGNSQESVTEQDSKDSTYSLSSTLTLSKADYEKHKVYACEVTHQGLSSPVTKSFNRGEC
heavy: not shown
notes: also called antibody TB-C1
B2: Positive control 2 (variable region SEQ ID NO: 41) (VHH)
VHH: EVQLVESGGGLVQPGGSLRLSCAASGSRLDYYAVAWFRQAPGKEREEVSCITYSGGSTNYAESVKGRFTISRDNSKNTLYLQMNSLRAEDTAVYYCTTEPYGSSCPLSGYDTWGQGTLVTVSS
notes: not shown: it was loaded on an AHC (anti-human Fc) sensor
B3: anti-TNFR2 control antibody (variable region SEQ ID NO: 83 and SEQ ID NO: 84, constant region of human IgG1 SEQ ID NO: 85 and SEQ ID NO: 86) (antibody, V domains shown)
VH: EVQLVQSGAEVKKPGATVKISCKVSGYSITDYLLHWVQQAPGKGLEWMGWIDPEDAKTKYGQKFQSRVTITADTSTDTAYMELSSLRSEDTAVYYCAANSGTGTMDAWGQGTLVTVSS
VL: DIVMTQSPATLSVSPGERATLSCKASQNVGSNVDWYQQKPGQSPRVLIYKASIRYTGIPARFSGSGSGTEFTLTISILQSEDFAVYFCMQSKSYPITFGQGTKLEIKR
notes: also called Positive control 1
B4: anti-CD24 control antibody (variable region SEQ ID NO: 9 and SEQ ID NO: 13, constant region of human IgG1 SEQ ID NO: 85 and SEQ ID NO: 86) (antibody, V domains shown)
VH: EVQLQESGPGLVKPSQTLSLTCTVSGYSITSGYTWHWIRQFPGNKLEWIGHIQYTGNTKYNPSLESRITISRDTSKNQFSLKLSSVTAADTATYYCARGSTNSNDYWGQGTLVTVSS
VL: DIVMTQSPSSLAVSLGERATINCKSSQSLLYSNDQKNYLAWYQQKPGQSPKLLIYWASTRESGVPDRFSGSGSGTDFTLTISSLQAEDVAVYYCQQYFIYPLTFGGGTKLELKR

What was measured:
[1] = target: T1, Human-TNFR2-His (manufacturer: SINO, CAT: 10417-H08H) (human, UniProt P20333 23-257); assay: BLI, antibody on AHC sensor, 100 nM human-TNFR2-His in solution
T1 construct: Bought protein; also called human TNFR2 protein; TNFR2 protein; not shown: His tag
T1 sequence (looked up): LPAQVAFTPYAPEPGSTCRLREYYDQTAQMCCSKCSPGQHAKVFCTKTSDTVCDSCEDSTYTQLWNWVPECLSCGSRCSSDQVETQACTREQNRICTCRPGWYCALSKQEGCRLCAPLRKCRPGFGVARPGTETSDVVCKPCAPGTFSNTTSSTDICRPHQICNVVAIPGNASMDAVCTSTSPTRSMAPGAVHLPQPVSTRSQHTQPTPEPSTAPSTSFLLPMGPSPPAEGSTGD
Description: The AHC sensor was soaked in 0.02% PBST (0.02% Tween 20, pH 7.4, 1×PBS) as a buffer for 600 s to remove the sucrose covering the sensor surface. The AHC sensor was equilibrated with 0.02% PBST (0.02% Tween 20, pH 7.4, 1×PBS) as a buffer for 60 s, the antibody in the sample plate was solidified for 300 s, and the secondary equilibration buffer was used for 180 s. 100 nM human-TNFR2-His (manufacturer: SINO, CAT: 10417-H08H, LOT: LC12SE2902) protein was bound to the antibody for 300 s and then dissociated for 600 s. After dissociation, 10 mM glycine (pH 2.0) was used as a regeneration buffer for 30 s. The sensor was regenerated with 10 mM glycine (pH 2.0).

[2] = target: T2, Human-B7H3 His (manufacturer: Acro, CAT: TB73-H52E2) (human, UniProt Q5ZPR3-2 29-245); assay: BLI, antibody on AHC sensor, 100 nM His-tagged protein (Acro TB73-H52E2) in solution
T2 construct: also called human B7H3 protein; B7H3 protein; not shown: His tag
T2 sequence (looked up): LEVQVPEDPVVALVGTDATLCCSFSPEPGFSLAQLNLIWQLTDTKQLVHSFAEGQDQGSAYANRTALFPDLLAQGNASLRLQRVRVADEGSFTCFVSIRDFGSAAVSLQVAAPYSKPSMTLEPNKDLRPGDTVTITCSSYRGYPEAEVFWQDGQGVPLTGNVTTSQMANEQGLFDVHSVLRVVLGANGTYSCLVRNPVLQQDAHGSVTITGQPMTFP

[3] = target: T3, Human-B7H3 Fc (manufacturer: Acro, CAT: B73-H5253) (human, UniProt Q5ZPR3-2 29-245); assay: bridging ELISA: Human-B7H3 Fc coated (0.5 µg/mL), antibody titrated, then Human-TNFR2-His (0.5 µg/mL), HRP-labeled anti-His detection, OD450 (Example 4); half-maximal concentration of the bridging signal
T3 construct: Bought protein; not shown: Fc
T3 sequence (looked up): T2 sequence (looked up)
Description: Human-B7H3 Fc (manufacturer: Acro, CAT: B73-H5253, LOT: 2053b-201XF1-UD) was diluted to 0.5 μg/mL with a coating solution (1×PBS, pH7.4) and coated into a 96-well ELISA plate at 100 μL/well at 4° C. overnight. The coating solution was poured off. Each well was washed with 1×PBST at 300 μL, washed 4 times with a plate washer, and patted dry on a flat paper. It was blocked with 3% skim milk powder at 300 μL/well, and incubated at 37° C. for 1 h. The blocking solution was poured off, washed 4 times with a plate washer, and patted dry on a flat paper. […] Starting at 300 nM, which was used as the initial concentration for 3-fold dilution, a total of 8 gradients were diluted, and a blank well was set up, and only diluent was added. It was incubated at 37° C. for 1 h at 100 μL/well. The liquid in the well was discarded, washed 4 times with a plate washer, and patted dry on a flat paper. Human-TNFR2-His (manufacturer: Sino, CAT: 10417-H08H, LOT: LC12SE2902) was diluted to 0.5 μg/mL, 100 μL was added to each well, and incubated at room temperature for 1 h. The plate was washed 3 times with PBST, and then the HRP-labeled his antibody was diluted with sample diluent at 1:10000, 100 μL was added to each well, and incubated at room temperature for 1 h. It was washed 6 times with a plate washer, and patted dry on a flat paper. […] Readings were taken at 450 nm on an ELISA reader.

[4] = target: T2, Human-B7H3 His (manufacturer: Acro, …); assay: ELISA: Human-B7H3 His coated (0.3 µg/mL), antibody titrated, goat anti-human IgG Fc detection, OD450 (Example 3)
Description: Human-B7H3 His (manufacturer: Acro, CAT: TB73-H52E2, LOT: 2052-21AXF1-YS) was diluted to 0.3 μg/mL with a coating solution (1×PBS, pH7.4), and coated into a 96-well ELISA plate at 100 μL/well overnight at 4° C. The coating solution was poured off. Each well was washed with 1×PBST at 300 μL, washed 4 times with a plate washer, and patted dry on a flat paper. It was blocked with 3% skim milk powder at 300 μL/well, and incubated at 37° C. for 1 h. The blocking solution was poured off, washed 4 times with a plate washer, and patted dry on a flat paper. Negative control and positive control were set up. […] The variable region of the antibody sequence of the positive control consists of SEQ ID NO: 1 and SEQ ID NO: 5, with the constant region of human IgG1 added (SEQ ID NO: 85 and SEQ ID NO: 86). The positive control and antibody were diluted to 10 μg/mL with 3% skim milk powder as the starting concentration, and then diluted by 3-fold gradient (11 gradients in total). A blank well was set up and only the diluent was added. It was incubated at 37° C. for 1 h at 100 μL/well. The liquid in the well was discarded, washed 4 times with a plate washer, and patted dry on a flat paper. Goat anti-human IgG Fc was diluted with 3% skim milk powder at 1:20000, and incubated at 37° C. for 1 h at 100 μL/well. It was washed 6 times with a plate washer, and patted dry on a flat paper. TMB color developing solution was added at 100 μL/well, and wrapped with aluminum foil. Color development was performed at 37° C. in the dark for 8 min. Termination solution 1M HCl was added to terminate the color development reaction at 100 μL/well. Readings were taken at 450 nm on an ELISA reader.

[5] = target: T1, Human-TNFR2-His (manufacturer: SINO, …); assay: ELISA: Human-TNFR2-His coated (0.3 µg/mL), antibody titrated, goat anti-human IgG Fc detection, OD450 (Example 10)
Description: (§1) Human-TNFR2-His (manufacturer: SINO, CAT: 10417-H08H, LOT: LC12SE2902) was diluted to 0.3 μg/mL with a coating solution (1×PBS, pH7.4), and coated into a 96-well ELISA plate at 100 μL/well overnight at 4° C. The coating solution was poured off. Each well was washed with 1×PBST at 300 μL, washed 4 times with a plate washer, and patted dry on a flat paper. It was blocked with 3% skim milk powder at 300 μL/well, and incubated at 37° C. for 1 h. The blocking solution was poured off, washed 4 times with a plate washer, and patted dry on a flat paper. Negative control and positive control were set up. […] The positive control and antibody were diluted to 10 μg/mL with 3% skim milk powder as the starting concentration, and then diluted by 3-fold gradient (11 gradients in total). A blank well was set up and only the diluent was added. It was incubated at 37° C. for 1 h at 100 μL/well. The liquid in the well was discarded, washed 4 times with a plate washer, and patted dry on a flat paper. Goat anti-human IgG Fc was diluted with 3% skim milk powder at 1:20000, and incubated at 37° C. for 1 h at 100 μL/well. It was washed 6 times with a plate washer, and patted dry on a flat paper. TMB color developing solution was added at 100 μL/well, and wrapped with aluminum foil. Color development was performed at 37° C. in the dark for 8 min. […] Readings were taken at 450 nm on an ELISA reader.

[6] = target: T1, Human-TNFR2-His (manufacturer: SINO, …); assay: as above; remark: listed apart in the source
Description: as §1

[7] = target: T4, human CD24 on MCF-7 tumor cells (human, UniProt P25063 27-59); assay: flow cytometry on MCF-7 cells, 150 nM antibody, anti-human IgG Fc detection
T4 construct: whole, on cells; also called CD24 protein; MCF-7 tumor cells with high expression of human CD24
T4 chain (looked up): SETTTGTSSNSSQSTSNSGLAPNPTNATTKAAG
Description: 100 μL of dilution was added to the blank control group, and 100 μL of fluorescent secondary antibody dilution was added to the rest of the sample groups respectively. After incubation for 0.5 h at room temperature and 4° C. protected from light, PBS was added to wash and centrifuged (3000 rpm, 3 min) twice. After discarding the supernatant, 80 μL of the dilution was added and resuspended.

| Binder | Kd [1] | koff [1] | kon [1] | Kd [2] | koff [2] | kon [2] | EC50 (read off the curve) [3] | EC50 (read off the curve) [4] | EC50 (read off the curve) [5] | EC50 (read off the curve) [6] | E1 Mean PE-A [7] |
| --- | --- | --- | --- | --- | --- | --- | --- | --- | --- | --- | --- |
| B1 | 2.89 nM | 0.000665 s⁻¹ | 230000 M⁻¹ s⁻¹ | 159 nM | 0.00174 s⁻¹ | 10900 M⁻¹ s⁻¹ | ~0.5 nM | ~0.3 nM |  |  |  |
| B2 | 1.61 nM | 0.000427 s⁻¹ | 266000 M⁻¹ s⁻¹ |  |  |  |  |  | ~0.05 nM |  |  |
| B3 | 0.324 nM | 0.000127 s⁻¹ | 391000 M⁻¹ s⁻¹ |  |  |  |  |  | ~0.03 nM | ~0.03 nM |  |
| B4 |  |  |  |  |  |  |  |  |  |  | 4.45e+06 |

From patent US20260055188A1 (SHENGHE CHINA BIOPHARMACEUTICAL, published 2026)
